# Data reported in patent US20090324700A1, “METHODS AND COMPOSITIONS FOR THE INHIBITION OF CATHEPSINS” (priority 2003, published 2009).
# Where “and” joins values, the source holds several entries; their conditions need not be identical. Equal entries are not always repeated.
# How the values were obtained:
# [1] = target: T1, human cathepsin H (Homo sapiens, UniProt P09668); assay: Protease specificity of Spi2A: cathepsin H; format: biochemical; details: protease 20 nM, Spi2A 200 nM, 1 h at 37° C; FIG. 6B
# T1 construct: purchased Calbiochem or Athens Research and Technology
# T1 sequence (P09668 98-335): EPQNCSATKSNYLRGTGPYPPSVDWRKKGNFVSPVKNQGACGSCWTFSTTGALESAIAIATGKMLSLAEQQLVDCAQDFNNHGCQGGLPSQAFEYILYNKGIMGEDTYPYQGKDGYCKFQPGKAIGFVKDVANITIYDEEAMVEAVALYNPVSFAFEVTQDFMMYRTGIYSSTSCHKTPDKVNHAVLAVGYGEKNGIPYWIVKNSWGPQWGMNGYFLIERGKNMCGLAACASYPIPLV
# Procedure: Protease specificity of Spi2A. RelA^−/− MEFs were transduced with retrovirus encoding Spi2A with a C-terminal 3×FLAG epitope tag and Spi2A-3×FLAG purified using a method described previously (Cooley et al., 1998). Briefly, cells (3×10^9) were lysed and Spi2A-3×FLAG (75 μg) purified by batch Q-Fast Flow ion-exchange chromatography (Pharmacia Biotech) after elution at 160-220 mM NaCl followed by anti-FLAG antibody columns, performed according to manufacturer's instructions (Sigma-Aldrich). Spi2A-3×FLAG was dialysed into PBS and stored as aliquots at −80° C. until needed.
# Proteases were purchases from the manufacturers (Calbiochem or Athens Research and Technology) except granzymes A and B which were purified as described (Hanna et al., 1993) and cathespin V and K, which were purified as described (Bromme et al., 1999; Linnevers et al., 1997). Proteases (20 nM) were incubated in the appropriate assay buffer with Spi2A at 200 nM (at least 10-fold excess of inhibitor to maintain pseudo-first order conditions) for 1 h at 37° C. Control samples included only the enzyme, without the inhibitor. At the end of 1 h protease activity was assayed. […] Substrate hydrolysis was measured in a fluorescence microtiter plate reader (Spectramax Gemini XS, Molecular Devices). Percentage inhibition was calculated from the residual enzyme activity compared to no Spi2A controls. […]
# [2] = tested on: anti-LCMV memory CD8 cells; details: mouse, in vivo
# [3] = tested on: LCMV-specific CD8 cells; details: mouse, in vivo
# [4] = tested on: NIH3T3 cells; assay: Survival of NIH3T3 cells incubated with Naphazarin (ROS); format: cell-based; details: 16 hours; three clones vs GFP controls; FIG. 12B
# Procedure: FIGS. 12A-B: Spi2A inhibits the lysosomal pathway of death in the absence of caspase activity. FIG. 12A: Cathepsin B activity in crude cytoplasmic extracts from cloned GFP or Spi2A-A NIH3T3 cells before (time=00 h) or after (time=8 h) treatment with TNF-α+Z-VAD.fmk (50 μM). FIG. 12B: Spi2A protects NIH3T3 cells from death due to reactive oxygen species. NIH3T3 fibroblasts from independent clones harboring control retrovirus (GFP clones #, 18, 12 and 2) or one expressing Spi2A (Spi2A clones# 6, 4 and 2) were incubated with Naphazarin—a known initiator of Reactive Oxygen Species (ROS). After 16 hours, the percentage of live cells was determined by flow cytometry as described in Liu et al. (2003).
# Spi2A protects NIH3T3 cells from death due to reactive oxygen species. NIH3T3 fibroblasts from independent clones harboring control retrovirus (GFP clones #, 18, 12 and 2) or one expressing Spi2A (Spi2A clones# 6, 4 and 2) were incubated with Naphazarin—a known initiator of Reactive Oxygen Species (ROS). After 16 hours, the percentage of live cells was determined by flow cytometry as described in Liu et al., 2003.
# [5] = tested on: RelA^−/− MEFs; assay: Survival assay, TNF-α and CHX, RelA^−/− MEFs; format: cell-based, mouse
molecule,measurement,setting,value
"Spi2A: murine Spi2A polypeptide, SEQ ID NO:2; purified as C-terminal 3×FLAG protein or expressed from MIGR1 retrovirus in cells and bone-marrow chimeras (protein, listed as Mus musculus, C-terminal 3xFLAG tag, purified as C-terminal 3×FLAG protein or expressed from MIGR1 retrovirus in cells and bone-marrow chimeras) MAGVSPAVFGCPDVTLGRNTAVREVQENVTSVDSLTLVSSNTDFAFSLYRKLVLKNPDENVVFSPFSICTALALLSLGAKSNTLKEILEGLKFNLTETPEPDIHQGFRYLLDLLSQPGNQVQISTGSALFIEKHLQILAEFKEKARALYQAEAFTADFQQPLKATKLINDYVSNHTQGKIKELISGLKESTLMVLVNYIYFKGKWKNPFDPNDTFKSEFYLDEKRSVIVSMMKTGYLTTPYFRDEELSCTVVELKYTGNASAMFILPDQGRMQQVEASLQPETLRKWKNSLKPRMIHELRLPKFSISTDYSLEHILPELGIREVFSTHADLSAITGTKDLRVSQVVHKAVLDVAEKGTEAAAATGMAGVGCCAVFDFLEIFFNRPFLMIISDTKAHIALFMAKVTNPERSTNFPNGEGASSQRLESKRLCFGDPLCLIGQ",Inhibition of protease by Spi2A (percentage inhibition),[1],"extended to all of the lysosomal, papain-like proteases that were examined"
same,Number of anti-LCMV CD8 cells per spleen GFP^−,[2],5.07 ± 0.68 (n = 3) ×10^−5 and 2.79 ± 0.12 (n = 6) ×10^−5
same,Percentage and absolute number of anti-LCMV memory CD8 cells (IFN-γ^+ CD8^+) in the spleen,[2],increased
same,Anti-LCMV CD8 cells as a percentage of the total GFP^+ CD8^+ cell population in PBLs,[3],significantly elevated
same,Level of anti-LCMV CD8 cells during the contraction phase,[3],considerable increase
same,Level of anti-LCMV CD8 cells during the initial expansion phase,[3],did not increase
same,Level of anti-LCMV CD8 cells during the memory phase,[3],elevated level
same,Residual level of anti-LCMV CD8 cells (level 56 days after infection as percentage of the maximum on day 14),[3],significantly (p<0.001) higher
same,Residual level of anti-LCMV CD8 cells (level after 98 days as percentage of the maximum after 14 days),[3],significantly higher
same,Time for which the elevated memory-phase level was stable,[3],at least 14 weeks
same,Survival (percentage of live cells) with Naphazarin,[4],significantly increased survival
same,Protection at low concentrations of TNF-α,"[5]; 0.5 ng/ml TNF-α, FIG. 2B",virtually complete
same,"Percentage survival after TNF-α and CHX, retrovirally transduced cells vs GFP","[5]; 16 h, CHX 0.1 μg/ml, FIG. 1B, 2B",markedly improved survival
same,Protection at high concentrations of TNF-α,"[5]; after 16 hours, FIG. 2B",dramatic
